Test results as given in patent EP1161262B1 (University of Maryland, Baltimore, dated 2008).
One block for each binder: values may come before it.

Legend:
[1] = target: T1, colligin/Hsp47 on the surface of human carcinoma cells (human, UniProt P50454 19-418); test: DSP cross-linking of surface-labelled cells, immunoprecipitation with anti-CD81 mAbs
T1 construct: whole, on cells; Endogenous protein on cells or in plasma membrane preparations and lysates of surface-biotinylated human SCC cells; also called CBP2; colligin/CBP2/Hsp47
T1 sequence (looked up): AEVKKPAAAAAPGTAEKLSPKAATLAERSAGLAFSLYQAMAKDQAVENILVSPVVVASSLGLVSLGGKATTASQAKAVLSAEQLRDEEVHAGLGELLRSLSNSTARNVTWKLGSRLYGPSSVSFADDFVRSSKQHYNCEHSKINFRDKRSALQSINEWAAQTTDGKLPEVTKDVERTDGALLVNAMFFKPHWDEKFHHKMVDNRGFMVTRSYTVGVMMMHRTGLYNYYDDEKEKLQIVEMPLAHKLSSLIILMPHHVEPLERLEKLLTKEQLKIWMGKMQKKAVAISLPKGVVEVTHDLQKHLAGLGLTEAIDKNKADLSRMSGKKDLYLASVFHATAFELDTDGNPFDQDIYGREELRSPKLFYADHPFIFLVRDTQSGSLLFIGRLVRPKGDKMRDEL

[2] = target: T2, colligin/Hsp47 of the murine Lewis Lung Carcinoma (LL/2) cell line (murine, UniProt P19324 18-417); test: as above
T2 construct: whole, on cells; Endogenous protein of LL/2 cells
T2 sequence (looked up): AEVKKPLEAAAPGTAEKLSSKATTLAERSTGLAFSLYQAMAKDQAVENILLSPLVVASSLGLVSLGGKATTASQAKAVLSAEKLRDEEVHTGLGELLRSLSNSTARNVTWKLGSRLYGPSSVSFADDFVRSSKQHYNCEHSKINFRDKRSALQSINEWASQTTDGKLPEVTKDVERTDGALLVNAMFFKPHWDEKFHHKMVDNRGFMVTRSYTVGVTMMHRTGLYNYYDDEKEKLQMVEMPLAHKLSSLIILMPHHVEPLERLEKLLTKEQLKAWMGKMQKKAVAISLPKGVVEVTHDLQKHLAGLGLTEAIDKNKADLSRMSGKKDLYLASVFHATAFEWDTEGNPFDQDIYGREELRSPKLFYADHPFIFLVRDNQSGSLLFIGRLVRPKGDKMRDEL

- binding result [1]: no binding
B1: CD81 of human SCC cells (other, UniProt P60033 1-236, looked up)
chain: MGVEGCTKCIKYLLFVFNFVFWLAGGVILGVALWLRHDPQTTNLLYLELGDKPAPNTFYVGIYILIAVGAVMMFVGFLGCYGAIQESQCLLGTFFTCLVILFACEVAAGIWGFVNKDQIAKDVKQFYDQALQQAVVDDDANNAKAVVKTFHETLDCCGSSTLTALTTSVLKNNLCPSGSNIISNLFKEDCHQKIDDLFSGKLYLIGIAAIVVAVIMIFEMILSMVLCCGIRNSSVY
notes: whole, on cells

- binding result [2]: no binding
B2: CD81 of murine LL/2 cells (other, UniProt P35762 1-236, looked up)
chain: MGVEGCTKCIKYLLFVFNFVFWLAGGVILGVALWLRHDPQTTSLLYLELGNKPAPNTFYVGIYILIAVGAVMMFVGFLGCYGAIQESQCLLGTFFTCLVILFACEVAAGIWGFVNKDQIAKDVKQFYDQALQQAVMDDDANNAKAVVKTFHETLNCCGSNALTTLTTTILRNSLCPSGGNILTPLLQQDCHQKIDELFSGKLYLIGIAAIVVAVIMIFEMILSMVLCCGIRNSSVY
notes: whole, on cells
